Article PMC8000039, “Toxin-Activating Stapled Peptides Discovered by Structural Analysis Were Identified as New Therapeutic Candidates That Trigger Antibacterial Activity against Mycobacterium tuberculosis in the Mycobacterium smegmatis Model” (Microorganisms, 2021)

Experiments:
[1] = CD spectroscopy, helicity calculated by CDNN software; format: physicochemical; conditions: 50 μM peptide, 10 mM potassium phosphate pH 7, 100 mM ammonium sulfate, 20 °C, average of three scans
Method: CD measurements were conducted at 20 °C using a Chirascan Plus spectropolarimeter (Applied Photophysics, Leatherhead, UK) in a cuvette with a 1 mm path length. The peptide samples were prepared at 50 μM in buffer consisting of 10 mM potassium phosphate (pH 7) and 100 mM ammonium sulfate. CD scans were taken from 180 nm to 260 nm at a speed of 100 nm/min with a 1 nm bandwidth. The helicity of each peptide was calculated by CDNN software.

[2] = tested on: VapBC26-expressing M. smegmatis mc2155 cells; format: cell-based, Mycobacterium smegmatis
[3] = tested on: VapBC26-harboring M. smegmatis; test: Confocal microscopy of FITC-labeled peptides (cell permeability); format: cell-based, Mycobacterium smegmatis; conditions: FITC-labeled peptide 10 μM, 1 h, 37 °C, trypsin to degrade surface-bound and extracellular peptide, two independent experiments
Method: Confocal microscopy was used to assess the permeability of M. smegmatis using FITC-labeled peptides. Cultures of M. smegmatis grown in complete 7H9 medium to mid-logarithmic phase (OD600 0.3–0.5) were diluted 5-fold with Muller-Hinton broth (BD Biosciences, Franklin Lakes, NJ, USA). Diluted cell suspensions were aliquoted into Eppendorf tubes and treated with 10 μM peptide. After 1 h of incubation at 37 °C and 100 rpm, the cell suspensions were washed with PBS. If successful internalization of FITC-labeled peptides is achieved, then fluorescence will be detected in the images. Surface-bound peptides and extracellular peptides were degraded by trypsin, and thus remained fluorescence signals in the images indicate the indeed internalization of peptide. Images were acquired on a TCS8 confocal scope (Leica Microsystems, Wetzlar, Germany) with a 63× oil immersion objective.

VapC26 α4_54–65: linear α4-mimicking peptide of VapC26 (residues 54–65), from the authors' previous study (DAELAVLRELAG; UniProt O53779 54-65, looked up, fragment)
Helicity (α-helical propensity) [1]: 20.8%
effect on cell growth (OD600) compared with control cells [2]: only a slight effect
cell penetration / uptake, fluorescence signal inside the cells [3]: barely observed
